One assay has as its system GnRH. The experiment in a line: anti-GnRH IgG endpoint titers by ELISA in sera of immunized mice. The class given is in vivo. The following applies: BALB/cJ mice. How it is done: B-cell function: Standard ELISA was used to measure therapeutic efficacy by GnRH-specific antibody titer in the collected mouse sera. ELISA plates were coated with GnRH-BSA conjugate and 8 sequential 10-fold dilutions (from 1:10^3 to 1:10^10) of sera in blocking buffer were made and added to the ELISA plate wells. An HRP-labeled anti-mouse secondary antibody was added and the plates developed with a colorimetric substrate and measured in an ELISA plate reader. Data were plotted, curve fitted, and statistically analyzed using Prism Graph Pad software for calculating mid- and end-point titers.
(§1) Constructs 1-7 (1 and 10 ug) were adjuvanted with a monophosphoryl lipid-A/squalene-based adjuvant and injected into BALB/cJ mice. Each construct is injected into 5 mice (n=5 per construct). After 14, 28, and 42 days, mouse sera were obtained to measure anti-GnRH IgG endpoint titers by ELISA using dilutions from […] (sequential 10-fold dilutions). […] Testosterone was extracted from the sera, derivatized, and separated and quantified by LC-MS/MS.
The solid line in the group of dots is the geometric mean and the error bars are the geometric standard deviation. Two doses were chosen for this study: 1 and 10 ug. IgG titers reached maximum levels 42 days following prime immunization.
Background: ELISA stands for enzyme-linked immunosorbent assay.

For another assay, the system named is testosterone. Kind of assay: serum testosterone by LC-MS/MS in immunized mice. Format: in vivo. The conditions noted are these: BALB/cJ mice. How it is done: as §1
A castrate T level is shown by the dotted line.

This is an account of results in patent US12648985B2, “Immunotherapeutic for prostate cancer treatment” (Hexamer Therapeutics, Inc., priority 2019, dated 2026).

Entries after “also recorded” stand apart in the source; their conditions may differ.

B1: construct 2: GnRH peptide immunogen (SEQ ID NO: 70) conjugated to the TCE3-Hex-TCE4 hexamer scaffold peptide (SEQ ID NO: 68) (conjugate)
chain 1: QHWSYGLRPGDGEGC
chain 2: GQEAFSHIRIPLPHDIRSIGKEIRSIGREIRSIGKEIRSIGREFQDAYNAAGGHNAVF
modifications: conjugated; GnRH; TCE3_Hex_TCE4
On to B1, for which, in the assay on GnRH (1 and 10 ug, monophosphoryl lipid-A/squalene-based adjuvant, FIG. 3), the “anti-GnRH IgG antibody titers, 1 ug versus 10 ug dose” value is “equal antibody titers at both 1 and 10 ug”. The “anti-GnRH IgG antibody titers, rank among the constructs” value in the assay with GnRH (FIG. 3, listed as TCE3-Hex-TCE4+GnRH) is “highest antibody titers; also recorded: highest titers or induced high titers sooner”. Moreover, in the assay on GnRH (FIGS. 4-6), the “inducing IgG titers compared with KLH+GnRH (positive control)” value is given as “about the same as KLH+GnRH”. Besides, in the assay with GnRH (days post-prime immunization, FIG. 3), the “anti-GnRH IgG titers, d28 versus d42” value was “almost equal levels between d28 and d42”. For the same molecule, in the assay on testosterone (FIGS. 4-6), the “inducing castrate levels of T compared with KLH+GnRH (positive control)” value is reported as “about the same as KLH+GnRH”. In addition, the “testosterone (T) levels induced” value in the assay on testosterone (by d42, FIG. 6) is recorded as “castrate levels of T”.

B2: construct 5: scaffold peptide (SEQ ID NO: 67): GnRH peptide and TCE2 at N- and C-terminus of the monomeric peptide, self-assembled (peptide)
chain: GQHWSYGLRPGGDIRSIGKEIRSIGREIKSIGREIRSIGRGPGPFNNFTVSFWLRVPRVSASHLEQY
modifications: also: self-assembled
As to B2, the “anti-GnRH IgG antibody titers, rank among the constructs” value in the assay on GnRH (FIG. 3) is on record as “highest titers or induced high titers sooner”.
